Results on 26 molecules are retold here after paper PMC4814116, “Design of Novel Relaxase Substrates Based on Rolling Circle Replicases for Bioconjugation to DNA Nanostructures”.

For one data set, the target named is T1, TrwCR (N-terminal relaxase domain of TrwC) (UniProt Q47673 1-293).
T1 sequence: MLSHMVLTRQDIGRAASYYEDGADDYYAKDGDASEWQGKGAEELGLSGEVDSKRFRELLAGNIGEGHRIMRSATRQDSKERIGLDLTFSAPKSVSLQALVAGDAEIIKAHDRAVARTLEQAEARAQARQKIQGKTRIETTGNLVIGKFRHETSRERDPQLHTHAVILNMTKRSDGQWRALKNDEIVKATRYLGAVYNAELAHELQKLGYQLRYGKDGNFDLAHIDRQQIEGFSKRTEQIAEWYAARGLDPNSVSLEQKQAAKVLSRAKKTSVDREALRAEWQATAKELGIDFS
As to the kind of experiment: SDS-PAGE covalent complex; 5 mM Mg2+; text says product not detected; Covalent complex: 15 uM oligo, 37 C 1 h, 5 mM MgCl2, 15 uM EDTA; TrwCR 10 mM Tris pH 7.6, 375 mM NaCl; MobAR 25 mM Tris pH 8.0, 225 mM NaCl; TraIR 10 mM Tris pH 7.6, 225 mM NaCl. EMSA: 50 nM oligo, 10 mM Tris pH 7.6, 100 mM NaCl, 1 mM EDTA, RT 30 min. Gel filtration: 100 mM Tris pH 7.6, 200 mM NaCl, EDTA. The note with it: protein: recombinant; hairpin. On the technique in general: SEC sorts molecules by how far they enter the pores of the column.
With ATAGCCCAGATCGCACCGAAAGGTGCG (structured_DNA) [R388 R(0+27)], the binding signal is 5.8 ± 1.9 % covalent complex.
On the same count and under the same terms, the figure for TATAGCCCAGATCGCACCGAAAGGTGCG (structured_DNA) [R388 R(1+27)] is 9.9 ± 3.2 % covalent complex; for GTCTATAGCCCAGATCGCACCGAAAGGTGCG (structured_DNA) [R388 R(4+27)] it is 9.9 ± 3.9 % covalent complex.

The next data set concerns the target T1, TrwCR (N-terminal relaxase domain of …). Briefly: gel filtration; EDTA; slight shift; Covalent complex: 15 uM oligo, 37 C 1 h, 5 mM MgCl2, 15 uM EDTA; TrwCR 10 mM Tris pH 7.6, 375 mM NaCl; MobAR 25 mM Tris pH 8.0, 225 mM NaCl; TraIR 10 mM Tris pH 7.6, 225 mM NaCl. EMSA: 50 nM oligo, 10 mM Tris pH 7.6, 100 mM NaCl, 1 mM EDTA, RT 30 min. Gel filtration: 100 mM Tris pH 7.6, 200 mM NaCl, EDTA. To be noted: protein: recombinant; hairpin.
As for ATTGTCTATAGCCCAGATCGCACCGAAAGGTGCG (structured_DNA) [R388 R(7+27)], the binding result is “binds”.

The target in another data set is T2, MobAR (minMobA) (plasmid RSF1010, UniProt P07112 1-186).
T2 sequence: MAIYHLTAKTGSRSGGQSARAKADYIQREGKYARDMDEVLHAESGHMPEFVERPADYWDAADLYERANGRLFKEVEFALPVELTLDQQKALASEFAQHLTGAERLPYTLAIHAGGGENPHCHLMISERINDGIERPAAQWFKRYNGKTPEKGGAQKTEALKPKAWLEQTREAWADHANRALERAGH
Briefly: SDS-PAGE covalent complex; 5 mM Mg2+; Covalent complex: 15 uM oligo, 37 C 1 h, 5 mM MgCl2, 15 uM EDTA; TrwCR 10 mM Tris pH 7.6, 375 mM NaCl; MobAR 25 mM Tris pH 8.0, 225 mM NaCl; TraIR 10 mM Tris pH 7.6, 225 mM NaCl. EMSA: 50 nM oligo, 10 mM Tris pH 7.6, 100 mM NaCl, 1 mM EDTA, RT 30 min. Gel filtration: 100 mM Tris pH 7.6, 200 mM NaCl, EDTA. To be noted: protein: recombinant; hairpin.
For the molecule CAGTTTCTCGAAGAGAAACCGGTAAGTGCGCCCTCCC (structured_DNA) [RSF1010 WQ(30+7)], the binding signal stood at 43.9 ± 1.4 % covalent complex.
Turning to GAGAAACCGGTAAGTGCGCCCTCCCCAGTTTCTC (structured_DNA) [RSF1010 HQ(18+16)], the binding signal amounted to 13.1 ± 4.2 % covalent complex.
Still for that read-out and setting: the figure for CCGGTTGAAAACCGGTAAGTGCGCCCTCCCC (structured_DNA) [RSF1010 WQ(23+7)] is 41.4 ± 1.3 % covalent complex.
Same read-out and setting: the figure for GAGAAACCGGTAAGTGCGCCCTCCCGATCAGTTTCTC (structured_DNA) [RSF1010 HQ(18+19)] is 9 ± 3.1 % covalent complex.

A further data set concerns the target T3, TraIR (N-terminal domain of TraI) (plasmid RP4, UniProt Q00191 1-270).
T3 sequence: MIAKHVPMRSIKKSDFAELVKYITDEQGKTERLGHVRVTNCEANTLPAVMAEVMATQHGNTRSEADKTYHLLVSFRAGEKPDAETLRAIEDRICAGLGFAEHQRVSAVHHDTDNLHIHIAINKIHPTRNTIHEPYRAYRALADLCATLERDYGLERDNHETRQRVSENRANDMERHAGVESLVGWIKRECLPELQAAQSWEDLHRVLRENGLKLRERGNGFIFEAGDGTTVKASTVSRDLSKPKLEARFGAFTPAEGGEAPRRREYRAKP
The description is as above. The note with it: protein: recombinant.
Regarding ACTTCACCTATCCTGCCCGGC (ssDNA) [RP4 WP(15+6)], the binding signal was determined as 24.4 ± 5.7 % covalent complex.

Still in this data set, the particulars now being: protein: recombinant; hairpin.
Regarding CTATCCTGCCCGGCTGGTGAAGGAAACTTCAC (structured_DNA) [RP4 RP(8+24)], the binding signal was 23.7 ± 2.7 % covalent complex.
Turning to GTGAAGGAAACTTCACCTATCCTGCCCGGCTG (structured_DNA) [RP4 WP(24+8)], the binding signal came to 21.3 ± 0.9 % covalent complex.

In the next data set the target is T1, TrwCR (N-terminal relaxase domain of …). Described as above. To be noted: protein: recombinant.
As to TATTGTCTATAGCCCACGCACC (ssDNA) [R388 R(8+14)], the binding signal is 30.2 ± 4.9 % covalent complex.
In the case of GGTGCGTATTGTCTATAGCCCAGATTTA (ssDNA) [R388 W(14+14)], the binding signal was 19.8 ± 1.9 % covalent complex.

Staying with this data set, now noted: protein: recombinant; hairpin.
With GGTGCGTATTGTCTATAGCCCAGATCGCACC (structured_DNA) [R388 H(14+17)], the binding signal stood at 22.3 ± 6.1 % covalent complex.
The same measure, in the same setting: the figure for GGTGCGTATTGTCTATCGCACC (structured_DNA) [R388 H(14+8)] is 22.4 ± 5.7 % covalent complex; for GCGCACCGAAAGGTGCGTATTGTCTATAGCCCAGATTTAAGGA (structured_DNA) [R388 W(25+18)] it is 24.7 ± 2.1 % covalent complex; for TATTGTCTATAGCCCAGATCGCACCGAAAGGTGCG (structured_DNA) [R388 R(8+27)] it is 44.7 ± 1 % covalent complex.
Still for that read-out and setting: the value for TATTGTCTATAGCCCACGCACCGAAAGGTGCG (structured_DNA) [R388 R(8+24)] was 45.3 ± 6.6 % covalent complex.
On the same count and under the same terms, the value for GGTGCGTATTGTCTATAGCCGCGCACC (structured_DNA) [R388 H(14+13)] was 23.3 ± 2.9 % covalent complex.
With GGTGCGTATTGTCTATAGCCCGCGCACC (structured_DNA) [R388 H(14+14)], the binding signal amounted to 26.8 ± 4.7 % covalent complex.
Same read-out and setting: the value for GGTGCGTATTGTCTATAGCCCAGCGCACC (structured_DNA) [R388 H(14+15)] was 19.6 ± 1.4 % covalent complex.
Consider GGTGCGTATTGTCTATAGCGCACC (structured_DNA) [R388 H(14+10)], for which the binding signal came to 23 ± 4.7 % covalent complex.
The same measure, in the same setting: the figure for GGTGCGTATTGTCTATAGCGCGCACC (structured_DNA) [R388 H(14+12)] is 25.5 ± 3.1 % covalent complex.

A further data set shares this target. As to the kind of experiment: gel filtration; EDTA; Covalent complex: 15 uM oligo, 37 C 1 h, 5 mM MgCl2, 15 uM EDTA; TrwCR 10 mM Tris pH 7.6, 375 mM NaCl; MobAR 25 mM Tris pH 8.0, 225 mM NaCl; TraIR 10 mM Tris pH 7.6, 225 mM NaCl. EMSA: 50 nM oligo, 10 mM Tris pH 7.6, 100 mM NaCl, 1 mM EDTA, RT 30 min. Gel filtration: 100 mM Tris pH 7.6, 200 mM NaCl, EDTA. To be noted: protein: recombinant; hairpin.
For the molecule AACCGGCTAGGTGCGTATTGTCTATAGCCCACGCACCTAGCCGGTT (structured_DNA) [R388 H(23+23)], the binding result was “binds”.
For AACCGGCTAGGTGCGTATTGTCTATAGCCCAGATCGCACCTAGCCGGTT (structured_DNA) [R388 H(23+26)], the binding result is given as “binds”.
The same measure, in the same setting: the value for CCGGTGCGTATTGTCTATAGCCCGCGCACCGG (structured_DNA) [R388 H(16+16)] was “binds”.
